Changes are numbered by the printed parent chain. Each block holds one binder with its values, some of them ahead of it.
What was measured:
[1] = target: T1, Human MAGEB2 (Melanoma-associated antigen B2) (human, UniProt O15479 1-319); assay: IHC on FFPE U20S cells (endogenous MAGEB2)
T1 construct: Intracellular antigen detected by IHC in FFPE material: CHO cells transfected with human MAGEB2 (mCherry vector with Myc/DDK tags, or ORF without tags)
T1 sequence: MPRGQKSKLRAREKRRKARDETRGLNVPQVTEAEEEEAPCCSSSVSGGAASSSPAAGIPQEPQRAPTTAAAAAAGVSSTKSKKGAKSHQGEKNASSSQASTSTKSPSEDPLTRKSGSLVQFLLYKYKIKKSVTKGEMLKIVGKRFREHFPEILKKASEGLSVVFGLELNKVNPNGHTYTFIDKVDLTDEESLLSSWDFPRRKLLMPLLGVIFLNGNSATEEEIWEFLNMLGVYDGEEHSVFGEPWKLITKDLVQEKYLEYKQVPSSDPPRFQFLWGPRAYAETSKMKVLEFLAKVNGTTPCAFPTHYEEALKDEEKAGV
Method: (§1) FFPE samples were sectioned at 4 μm and mounted on positive charged glass slides. After mounting, paraffin sections were air-dried at room temperature. FFPE TMA samples were received as freshly sectioned and mounted on glass slides. The fully automated IHC assay was performed on a Discovery Ultra Stainer (Ventana Medical Systems, Tucson, AZ) using Ventana Anti-Rabbit HQ (cat #760-4815), Ventana Anti-HQ HRP (cat #760-4820), and Ventana Antibody Diluent with Casein (cat #760-219) (Ventana Medical Systems, Tucson, AZ). The slides were baked on the Discovery Ultra Stainer at 60° C. for 8 minutes, de-paraffinized with Ventana Discovery wash (cat #950-510) for 3 cycles (8 minutes each) at 69° C., and underwent cell conditioning (target retrieval) at 95° C. for 16 minutes (for cell arrays) or 32 minutes (tissues or TMAs) in CC1 buffer (cat #950-500). Following this, slides were incubated with Background Sniper (cat #BS966M, Biocare Medical, Pacheco, CA) in a Ventana Option Prep kit (cat #771-751) for 28 minutes, incubated with CM inhibitor (a part of the Ventana DAB kit cat #760-159) for 12 minutes, and incubated for 1 h at RT with MAGE-B2 antibody diluted with Ventana diluent with Casein in a Ventana Prep kit (cat #770-001) (working concentration at 0.1 μg/ml for cell pellet, or 1-5 ug/ml for tissues) or with a matched concentration of isotype control Rabbit IgG1 antibody. Following this, slides were incubated with the Ventana Anti-Rabbit HQ (cat #760-4815) for 28 minutes at RT, Ventana Anti-HQ HRP (cat #760-4820) for 28 minutes at RT, and signals detected with Ventana DAB chromogen kit (cat #760-159) for 5 minutes at RT. Slides were counterstained with Ventana Hematoxylin II (cat #5266726001) for 8 minutes and Ventana Bluing reagent (cat #526676900) for 4 minutes. Slides were coverslipped and digitized using an Aperio AT2 scanner (Leica Biosystems Inc, Buffalo Grove, IL).

[2] = target: T2, human MAGEA3 (human, UniProt P43357 1-314); assay: IHC, FFPE CHO cells transfected with human MAGEA3
T2 construct: whole, on cells; FFPE cell pellets
T2 sequence (P43357 whole entry): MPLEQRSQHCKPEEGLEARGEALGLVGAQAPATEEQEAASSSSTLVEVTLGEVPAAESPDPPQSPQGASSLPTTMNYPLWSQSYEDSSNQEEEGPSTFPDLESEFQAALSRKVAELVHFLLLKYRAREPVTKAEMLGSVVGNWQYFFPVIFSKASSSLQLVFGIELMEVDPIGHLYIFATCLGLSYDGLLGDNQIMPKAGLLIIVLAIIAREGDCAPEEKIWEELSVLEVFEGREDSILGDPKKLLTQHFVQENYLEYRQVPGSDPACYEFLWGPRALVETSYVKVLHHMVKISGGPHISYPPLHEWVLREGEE
Method: as §1

[3] = target: T3, human MAGEB17 (human, UniProt A8MXT2 1-336); assay: IHC, FFPE CHO cells transfected with human MAGEB17
T3 construct: whole, on cells; FFPE cell pellets; also called MAGE-17
T3 sequence (looked up): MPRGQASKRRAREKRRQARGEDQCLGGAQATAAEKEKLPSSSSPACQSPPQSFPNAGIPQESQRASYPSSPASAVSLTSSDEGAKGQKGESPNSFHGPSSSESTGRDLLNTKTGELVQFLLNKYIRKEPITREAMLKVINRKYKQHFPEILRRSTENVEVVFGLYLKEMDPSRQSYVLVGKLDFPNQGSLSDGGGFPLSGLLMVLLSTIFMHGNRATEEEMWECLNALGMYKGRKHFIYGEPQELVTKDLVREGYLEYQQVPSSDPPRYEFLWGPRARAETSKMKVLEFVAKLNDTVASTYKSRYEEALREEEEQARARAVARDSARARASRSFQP
Method: as §1

IHC % Frequency [1]: 60%
IHC Intensity [1]: 2
binding result [2]: no binding (tested: 0.1 µg/ml)
binding result [3]: no binding (tested: 0.1 µg/ml)
B1: 1C3 (antibody, V domains shown)
VH: QSLEESGGGLVQPEGSLTLTCTAFGVTLTNYYICWVRQAPGKGLEWVGCIDNANGRTYYASWAKGRFTISKTSSTTGTLQMTSLTAADTATYFCARSLATPLWGPGTLVTVSS
VL: DIVMTQTPSSVEAAVGGTVTIKCQASQNISSYLAWYQQKPGQPPKLLIYRASTLASGVPSRFKGSGSGTQFTLTISDLECADAATYYCQSYDDSRSSNFFYAFGGGTEVVVKG
notes: also called MAGE-B2 (IC3); anti-MAGEB2 antibody 1C3

IHC % Frequency [1]: 60%
IHC Intensity [1]: 2
binding result [2]: no binding (tested: 0.1 µg/ml)
binding result [3]: no binding (tested: 0.1 µg/ml)
B2: 4G17 (antibody, IgG1, V domains shown)
VH: B1 VH with F24S, T29S, V47I, A53V
VL: DIVMTQTPASVEAAVGGTVTIKCQASQNIDSYLAWYQQKPGQPPKLLIYRASTLASGVPSRFKGSGSGTEFTLTISDLECADAATYYCQSYDDSRSSSFFYGFGGGTEVVVK
notes: Rabbit monoclonal IgG1; Tested as supernatant and as small batch purified antibody; also called MAGE-B2 (4G17); anti-MAGEB2 antibody 4G17

Further lines, the binder ahead of its results:

B3: 1J15 (antibody, IgG1, V domains shown)
VH: B1 VH with V26F, T29N, V47I, G48A, G77V, A99S
VL: B2 VL with N28S, D30S, A34S, K63R, E70Q, R95S, S96D, S97N, S98N, K112R
notes: Rabbit monoclonal IgG1; Tested as supernatant and as small batch purified antibody; also called MAGE-B2 (IJ15); anti-MAGEB2 antibody 1J15
IHC % Frequency [1]: 50%
IHC Intensity [1]: 1
binding result [2]: no binding (tested: 0.1 µg/ml)
binding result [3]: no binding (tested: 0.1 µg/ml)

B4: 1I14 (antibody, V domains shown)
VH: QSVEESGGRLVTPGTPLTLTCTISGFSLSSYAMSWVRQAPGKGLEWIGSIGGGGSAVYASWAKGRFTISKTSTTVDLRITSPTTEDTAMYFCGRGFYSIDLWGPGTLVTVSS
VL: DVVMTQTPASVEATVGGTVTIKCQSSQSVYDNNALAWYQQNAGQRPRLLIYGASTLASGVPSRFSASGSGTEFTLTISDLECADAATYYCQCTYYVSSYQNDFGGGTEVVVKG
notes: also called MAGE-B2 (1i14)
IHC % Frequency [1]: 70%
IHC Intensity [1]: 2
binding result [2]: no binding (tested: 0.1 µg/ml)
binding result [3]: no binding (tested: 0.1 µg/ml)

Source: patent publication US20250282887A1 (Amgen, published 2025)
